In article PMC7759300 (The Journal of Cell Biology, 2020):

Legend:
SAS-6 [1] = target: SAS-6 (UniProt Q6UVJ0); experiment: GFP-Trap co-IP, SAS-6 blot; settings: reference: wild type; sites S325
SAS-6 [2] = target: SAS-6 (UniProt Q6UVJ0); experiment: GFP-Trap co-IP, SAS-6 blot; settings: reference: wild type; sites S325; remark: listed apart in the source
Strep-NEDD1 = Strep-NEDD1 (human, UniProt Q8NHV4 1-660); experiment: pull-down
Sequence of Strep-NEDD1 (Q8NHV4 whole entry): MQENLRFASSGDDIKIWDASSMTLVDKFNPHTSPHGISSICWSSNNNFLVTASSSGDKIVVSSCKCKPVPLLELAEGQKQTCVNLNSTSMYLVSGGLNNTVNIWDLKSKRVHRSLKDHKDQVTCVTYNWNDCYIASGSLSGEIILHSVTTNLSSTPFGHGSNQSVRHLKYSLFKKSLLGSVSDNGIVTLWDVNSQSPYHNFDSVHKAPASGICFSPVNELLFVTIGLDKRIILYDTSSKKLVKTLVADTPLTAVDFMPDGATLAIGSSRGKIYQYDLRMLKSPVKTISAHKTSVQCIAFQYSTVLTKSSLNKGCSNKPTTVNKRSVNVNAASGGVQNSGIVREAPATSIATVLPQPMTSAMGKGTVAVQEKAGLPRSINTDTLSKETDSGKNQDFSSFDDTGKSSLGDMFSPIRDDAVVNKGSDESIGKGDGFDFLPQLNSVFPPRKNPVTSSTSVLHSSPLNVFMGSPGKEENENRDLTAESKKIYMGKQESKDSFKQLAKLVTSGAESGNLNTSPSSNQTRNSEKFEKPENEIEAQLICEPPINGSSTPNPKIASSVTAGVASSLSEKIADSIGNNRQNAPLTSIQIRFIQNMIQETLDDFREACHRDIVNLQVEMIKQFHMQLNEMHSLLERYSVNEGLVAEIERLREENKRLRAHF

binding against the reference (SAS-6 [1]) | binding against the reference (SAS-6 [2]) | binding result (Strep-NEDD1) | Molecule
weaker | weaker |  | NEDD1 (from UniProt Q8NHV4) S325A
 |  | binds | GFP-SAS-6-Strep (natural protein) MSQVLFHQLVPLQVKCKDCEERRVSIRMSIELQSVSNPVHRKDLVIRLTDDTDPFFLYNLVISEEDFQSLKFQQGLLVDFLAFPQKFIDLLQQCTQEHAKEIPRFLLQLVSPAAILDNSPAFLNVVETNPFKHLTHLSLKLLPGNDVEIKKFLAGCLKCSKEEKLSLMQSLDDATKQLDFTRKTLAEKKQELDKLRNEWASHTAALTNKHSQELTNEKEKALQAQVQYQQQHEQQKKDLEILHQQNIHQLQNRLSELEAANKDLTERKYKGDSTIRELKAKLSGVEEELQRTKQEVLSLRRENSTLDVECHEKEKHVNQLQTKVAVLEQEIKDKDQLVLRTKEAFDTIQEQKVVLEENGEKNQVQLGKLEATIKSLSAELLKANEIIKKLQGDLKTLMGKLKLKNTVTIQQEKLLAEKEEKLQKEQKELQDVGQSLRIKEQEVCKLQEQLEATVKKLEESKQLLKNNEKLITWLNKELNENQLVRKQDVLGPSTTPPAHSSSNTIRSGISPNLNVVDGRLTYPTCGIGYPVSSAFAFQNTFPHSISAKNTSHPGSGTKVQFNLQFTKPNASLGDVQSGATISMPCSTDKENGENVGLESKYLKKREDSIPLRGLSQNLFSNSDHQRDGTLGALHTSSKPTALPSASSAYFPGQLPNS
